The target of test [1] is T1, MBP-SUFU-Δ (Homo sapiens, UniProt Q9UMX1, DEL285-359/L360P/P281R/P282G/R280S/S279P).
T1 construct: subcloning different SUFU32–483 variants into vector pLJMBP4c; His tag (as in MBP-SUFU-FL; purified on HisTrap) (C); made in house; host or cells: Escherichia coli JM109 (DE3)
Kind of test: SYPRO Orange initial fluorescence upon peptide addition, MBP-SUFU-Δ. The class given is binding. The conditions noted are these: excitation 470 nm, emission 570 nm, pH 7.0. As for the experimental part:
(§1) Recombinant MBP-SUFU proteins were diluted to 2.6 µM in 50 mM Na HEPES pH 7.0, 50 mM NaCl, 5 mM β-mercaptoethanol; the peptides GLI1p and GLI1p-SH (Supplementary Table S1b), synthesized by Dr W. Mawby (University of Bristol), were dissolved in the same buffer. Proteins were spun at 14 000g for 20 min at 4°C before adding SYPRO Orange (Molecular Probes) to a final concentration of 6×. Reaction volumes of 25 µl were prepared in 96-well PCR plates with 2.2 µM protein/SYPRO Orange solution and, where applicable, 44 µM peptide. Plates were sealed with optical tape, heated from 20 to 90°C in 12 s 0.2°C steps in an iCycler and fluorescence was detected using an excitation wavelength of 470 nm and an emission wavelength of 570 nm.
Recombinant MBP-SUFU constructs were diluted to 2.5 µM in 50 mM Na HEPES pH 7.0, 50 mM NaCl, 5 mM β-mercaptoethanol and spun at 14 000g for 20 min at 4°C before the addition of SYPRO Orange to a final 5× concentration of dye. The fluorescence of 100 µl samples was measured in black 96-well plates (Nunc) using excitation at λ = 470 nm and emission at λ = 570 nm. GLI1p or GLI1p-SH peptides prepared in the same buffer as above were added in the given ratios and mixed before a second reading was taken. Readings post-peptide addition were divided by the corresponding pre-peptide addition measurements to obtain normalized results. […]

Test [2] deals with T1, MBP-SUFU-Δ. Kind of test: Thermal stability assay with peptide, MBP-SUFU-Δ. The note with it: 44 µM peptide, 2.2 µM protein, SYPRO Orange, 50 mM Na HEPES pH 7.0, 50 mM NaCl, 5 mM β-mercaptoethanol; triplicate. The class given is binding. As for the experimental part: (§2) Recombinant MBP-SUFU proteins were diluted to 2.6 μM in 50 mM Na HEPES pH 7.0, 50 mM NaCl, 5 mM β-mercaptoethanol; the peptides GLI1p and GLI1p-SH (Supplementary Table S1b), synthesized by Dr W. Mawby (University of Bristol), were dissolved in the same buffer. Proteins were spun at 14 000g for 20 min at 4°C before adding SYPRO Orange (Molecular Probes) to a final concentration of 6×. Reaction volumes of 25 μl were prepared in 96-well PCR plates with 2.2 μM protein/SYPRO Orange solution and, where applicable, 44 μM peptide. Plates were sealed with optical tape, heated from 20 to 90°C in 12 s 0.2°C steps in an iCycler and fluorescence was detected using an excitation wavelength of 470 nm and an emission wavelength of 570 nm. To determine whether the IDR affects the GLI-binding properties of SUFU, we used a human GLI1-derived peptide (GLI1p; residues 115-131; Supplementary Table S1b) containing the highly conserved SYGH motif important for interaction with SUFU (Dunaeva et al., 2003[▶]) in a thermal stability assay with MBP-SUFU-FL and MBP-SUFU-Δ (Fig. 4 ▶ a). The addition of GLI1p stabilized both proteins: T m for MBP-SUFU-FL was shifted by 4°C and that for MBP-SUFU-Δ was shifted by 3.6°C. […] The GLI1 dose dependency of this effect was confirmed in a separate experiment with increasing GLI1p concentrations (Supplementary Fig. […]).

The next test concerns the target T2, MBP-SUFU-FL (Homo sapiens, UniProt Q9UMX1).
T2 construct: containing residues 32–483 of human SUFU and a C-terminal hexahistidine tag; hexahistidine tag (C); made in house; host or cells: Escherichia coli JM109 (DE3)
Briefly: Thermal stability assay with peptide, MBP-SUFU-FL. The conditions noted are these: 44 µM peptide, 2.2 µM protein, SYPRO Orange, 50 mM Na HEPES pH 7.0, 50 mM NaCl, 5 mM β-mercaptoethanol; triplicate. The class given is binding. As for the experimental part:
as §2

The subject of the next test is MBP-SUFU-SH. Briefly: Thermal stability assay with peptide, MBP-SUFU-SH. Format: binding, human. The note with it: 44 µM peptide, 2.2 µM protein, SYPRO Orange, pH 7.0; triplicate. As for the experimental part:
as §1
Figure 4 The SUFU IDR has distinct structural properties. (a) Thermal stability assays of MBP-SUFU constructs performed in triplicate, either alone (blue) or with GLI1p (red) or GLI1p-SH (green). […] (b) Microscale thermophoresis experiments with FAM-GLI1p and titrated MBP-SUFU constructs, showing an average of three separate experiments. All proteins have similar affinity, but the thermophoretic properties of FAM-GLI1p are modified differently between the MBP-SUFU-FL construct and the MBP-SUFU-Δ and MBP-SUFU-SH constructs, reflecting a difference in shape.

T1 sequence (Q9UMX1 with tags, fused parts or gaps S279P/R280S/P281R/P282G/DEL285-359/L360P limits assumed, other chains not shown): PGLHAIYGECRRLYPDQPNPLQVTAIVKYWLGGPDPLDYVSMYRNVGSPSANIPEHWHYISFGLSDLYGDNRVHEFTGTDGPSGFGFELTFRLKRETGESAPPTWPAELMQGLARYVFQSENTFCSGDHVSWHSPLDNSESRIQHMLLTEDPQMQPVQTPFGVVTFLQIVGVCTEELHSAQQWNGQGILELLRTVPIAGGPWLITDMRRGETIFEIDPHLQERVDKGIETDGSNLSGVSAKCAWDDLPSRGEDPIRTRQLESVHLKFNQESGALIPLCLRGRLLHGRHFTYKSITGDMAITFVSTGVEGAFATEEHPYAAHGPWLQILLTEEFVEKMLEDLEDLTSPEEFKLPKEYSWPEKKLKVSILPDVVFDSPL
Chain of MBP-SUFU-SH (Q9UMX1 32-278 limits assumed): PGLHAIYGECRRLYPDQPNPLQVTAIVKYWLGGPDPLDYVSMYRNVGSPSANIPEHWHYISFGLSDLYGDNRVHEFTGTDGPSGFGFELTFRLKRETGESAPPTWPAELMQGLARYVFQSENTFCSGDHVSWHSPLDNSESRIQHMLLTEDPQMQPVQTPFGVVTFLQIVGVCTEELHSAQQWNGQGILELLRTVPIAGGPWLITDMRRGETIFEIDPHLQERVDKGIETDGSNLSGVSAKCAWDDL
Chain of MBP-SUFU-SH (Q9UMX1 361-483 limits assumed): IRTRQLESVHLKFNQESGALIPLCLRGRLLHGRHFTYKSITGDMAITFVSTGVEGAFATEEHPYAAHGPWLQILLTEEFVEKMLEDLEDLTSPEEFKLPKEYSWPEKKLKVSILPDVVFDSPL
T2 sequence (Q9UMX1 32-483, other chains not shown): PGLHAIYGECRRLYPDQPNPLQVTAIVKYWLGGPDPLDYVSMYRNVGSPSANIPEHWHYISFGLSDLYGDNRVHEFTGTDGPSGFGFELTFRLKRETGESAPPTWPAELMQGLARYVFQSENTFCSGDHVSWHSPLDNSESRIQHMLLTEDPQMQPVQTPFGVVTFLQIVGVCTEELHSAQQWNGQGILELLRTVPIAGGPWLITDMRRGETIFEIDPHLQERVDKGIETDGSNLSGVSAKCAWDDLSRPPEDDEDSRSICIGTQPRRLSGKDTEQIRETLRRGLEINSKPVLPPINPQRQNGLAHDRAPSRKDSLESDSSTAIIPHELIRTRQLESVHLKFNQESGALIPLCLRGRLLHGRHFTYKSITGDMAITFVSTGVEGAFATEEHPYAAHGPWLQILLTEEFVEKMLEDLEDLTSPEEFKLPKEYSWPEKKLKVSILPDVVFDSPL

Consider “GLI1p: human GLI1-derived peptide; residues 115–131, containing the highly conserved SYGH motif (TSPGGSYGHLSIGTMSP)”, for which, in the test with MBP-SUFU-Δ [1], the “initial fluorescence upon addition of GLI1p” value is listed as “no such effect”. For the same substance, the Tm shift was found to be 3.6 °C in the test with MBP-SUFU-Δ [2] and 4 °C with MBP-SUFU-FL. Also, the binding result with MBP-SUFU-SH is “All constructs bind to GLI1p”.

Source of the values: article PMC3852661, “Structural basis of SUFU–GLI interaction in human Hedgehog signalling regulation” (Acta Crystallographica Section D: Biological Crystallography, 2013).
